To fix the notation:
B1: HDV Ribozyme (parent)
chain: GGCCGGCAUGGUCCCAGCCUCCUCGCUGGCGCCGGCUGGGCAACAUUCCGAGGGGACCGUCCCCUCGGUAAUGGCGAAUGGGACCCA

Variants of B1 are the subject of this data set. The experiment in a line: self-cleavage, relative activity (ratio to wild type); higher = more cleavage; co-transcriptional.
As to G1U A77C, the self-cleavage was 0.494.
In the case of G1U A77G it was 0.406; in that of G1C G31C, 0; in that of G1A G35A, 0.101.
For the variant G1A G35U, the self-cleavage is 0.158.
With G1C A16C, the self-cleavage worked out at 0.128.
To G1C A16U belongs 0.111; to G1U G2A, 0.262.
In the case of G1U C86G it was 0.289.
In the case of G1U C86U it was 0.212.
For G1A G6C, the self-cleavage was 0.151.
In the case of G1A G6U it was 0; in that of G1C G50A, 0.277; in that of G1C G50C, 0.342.
To G1C G50U belongs 0.231; to G1U U47G, 0.405.
To G1U A45U belongs 0.441; to G1U A45C, 0.453; to G1U A45G, 0.291.
For G1C A8U, the self-cleavage worked out at 0.0978.
G1C A8C: the self-cleavage was determined as 0.
G1U C14U: the self-cleavage stood at 0.434.
To G1A C66U belongs 0.353; to G1A U46G, 0.138.
In the case of G1A U46A it was 0.0755; in that of G1C C86A, 0.0978; in that of G1C C86G, 0.268.
In the case of G1U C62G it was 0.391; in that of G1U C62U, 0.443.
Turning to G1U C62A, the self-cleavage was 0.248.
In the case of G2A A56G it was 0.242; in that of G1C C84A, 0.166; in that of G1C C84U, 0.128.
To G1A G25A belongs 0.0739; to G1A G25U, 0.0462.
Regarding G1U A16C, the self-cleavage was 0.277.
G1U A16G: the self-cleavage turned out to be 0.256.
In the case of G1U A16U it was 0.262.
As to G2A A8G, the self-cleavage is 0.0773.
In the case of G1C U60C it was 0.0639; in that of G1A G74U, 0.0563; in that of G1A G74C, 0.
In the case of G1A G81A it was 0.0462; in that of G1U G31U, 0.385; in that of G1U G31C, 0.356.
In the case of G1C U9G it was 0.104; in that of G1C U9C, 0; in that of G1U G10A, 0.387.
On to G1C U69G, for which the self-cleavage was determined as 0.208.
In the case of G1C C33U it was 0.
To G1C C33G belongs 0; to G1C C21U, 0; to G1C C21A, 0.
To G1C C21G belongs 0; to G1U G28A, 0.292.
As to G1U G28C, the self-cleavage was determined as 0.185.
In the case of G1C C75U it was 0.227; in that of G1C C75G, 0.178.
In the case of G1U G80U it was 0.479; in that of G1U C36G, 0.306.
For G1U C36U, the self-cleavage was determined as 0.318.
In the case of G1C C26A it was 0.166; in that of G1C C26G, 0.227.
To G2A A51C belongs 0.203; to G2A A51U, 0.155.
For G1A G29C, the self-cleavage was 0.181.
On to G2A, for which the self-cleavage was 0.2.
In the case of G1U U69A it was 0.332; in that of G1U U69C, 0.259; in that of G1C A78G, 0.0573.
In the case of G1U C48A it was 0.465; in that of G1A G55A, 0.0519; in that of G1A G55C, 0.115.
With G1U A43G, the self-cleavage was 0.147.
To G1U A43U belongs 0.225; to G1U A43C, 0.425; to G1C A83G, 0.151.
To G1C A83U belongs 0.252; to G1U C66U, 0.296; to G1U C58A, 0.237.
In the case of G1U C58U it was 0.401; in that of G1A G10A, 0.151.
Turning to G1A G10C, the self-cleavage turned out to be 0.35.
To G1A G10U belongs 0.153; to G1C U23A, 0.128.
To G1C C3G belongs 0.443; to G1C C48A, 0.293; to G1U C63G, 0.453.
To G1U C63U belongs 0.535; to G1U C63A, 0.391; to G1U G6U, 0.429.
Turning to G1A G11A, the self-cleavage was 0.0779.
To G1A G11U belongs 0.0992.
To G1U G68C belongs 0.431; to G1C A70C, 0.185.
On to G1C C22A, for which the self-cleavage is 0.203.
To G1C C22G belongs 0; to G2A A45U, 0.111.
To G2A A45G belongs 0.0779.
As to G2A A45C, the self-cleavage is 0.0723.
In the case of G1A G28A it was 0.0332; in that of G1C A87U, 0.104; in that of G1U G11U, 0.439.
As to G1U G11A, the self-cleavage came out at 0.364.
To G1U G53U belongs 0.355.
For the variant G1U G53C, the self-cleavage was determined as 0.283.
To G1U G53A belongs 0.32.
To G2A A71G belongs 0.241.
In the case of G2A A71C it was 0.13; in that of G1C G29C, 0.0665.
Consider G1A U23C, for which the self-cleavage was determined as 0.
In the case of G1U C21A it was 0.397.
G1U C21G: the self-cleavage turned out to be 0.312.
In the case of G1U C21U it was 0.348; in that of G1C C41A, 0.123; in that of G1C C41U, 0.229.
To G1C G55A belongs 0.106; to G1C C36A, 0.151.
As to G1A U60A, the self-cleavage stood at 0.185.
In the case of G1U C85U it was 0.321; in that of G1U C85A, 0.361; in that of G1C G80U, 0.0484.
Regarding G1C G80A, the self-cleavage came to 0.0405.
In the case of G1U U46C it was 0.277; in that of G1C G53U, 0.213.
To G1C G53C belongs 0.332; to G1A U65C, 0.0875; to G1A U12A, 0.0415.
In the case of G1A G17A it was 0.0811.
In the case of G1C G67U, the self-cleavage came to 0.0739.
To G1C G67C belongs 0.111.
In the case of G1C G67A it was 0.0898.
Consider G1C C30G, for which the self-cleavage is 0.128.
To G1C C58A belongs 0.297; to G1C C58G, 0.199.
G1C G5C: the self-cleavage was found to be 0.
To G1C G39C belongs 0.0519.
In the case of G1U U60A it was 0.343.
In the case of G1U C64U it was 0.451; in that of G1A G39C, 0.
Consider G1C C61G, for which the self-cleavage came out at 0.0504.
In the case of G1C C61U it was 0.185; in that of G1A C75U, 0.0639.
As for G1U C32A, the self-cleavage was 0.289.
In the case of G1U G38C it was 0.369; in that of G1U G38A, 0.422; in that of G1C G76U, 0.115.
To G1U U27G belongs 0.522.
On to G1C C24A, for which the self-cleavage came out at 0.142.
To G1C C24G belongs 0.0462.
For G1A U79C, the self-cleavage is 0.119.
G1A U79A: the self-cleavage was 0.208.
For the variant G1A G80C, the self-cleavage is 0.119.
To G1C G40U belongs 0.189.
In the case of G1C G40A it was 0.111.
To G1A U20G belongs 0; to G1U C24U, 0.409.
Consider G1A G52A, for which the self-cleavage worked out at 0.138.
In the case of G1A G73C it was 0.0739.
In the case of G1U C18G it was 0.151; in that of G1U U65G, 0.17; in that of G1U U65A, 0.191.
For G1U U20G, the self-cleavage is 0.285.
Turning to G1U U20A, the self-cleavage came out at 0.289.
Take G1C G2A: the self-cleavage came out at 0.138.
To G1C G2U belongs 0.256; to G1C A56U, 0.17.
